{"source": "paper PMC7287101", "target": "Spt6 (UniProt Q9W420)", "assay": "anti-Spt6 co-IP, FLAG blot, 150 mM wash", "details": "reference: wild type dCENP-A-FLAG; sites S20,S75,S77"}
{"substance": "dCENP-A (CID) (from UniProt Q9V6Q2) S20/S75/S77A", "values": [{"measurement": "binding against the reference", "result": "stronger"}]}
